Test results reported in US20220226442A1 (published 2022).

- Kd (V69A): 23 pM
- Kd (E68Q): 22 pM
- Kd (L72I): 24 pM
- Kd (M104D): 28 pM
- Kd (I114W): 38 pM
- Kd (N71Y): 18 pM
B1: CD25 (receptor)
chain: ELCDDDPPEIPHATFKAMAYKEGTMLNCECKRGFRRIKSGSLYMLCTGNSSHSSWDNQCQCTSSATRNTTKQVTPQPEEQKERKTTEMQSPMQPVDQASLPGHCREPPPWENEATERIYHFVVGQMVYYQCVQGYRALHRGPAESVCKMTHGKTRWTQPQLICTGEMETSQFPGEEKPQASPEGRPESETSCLVTTTDFQIQTEMAATMETSIFTTEYQHHHHHH
